Among the data in article PMC12325741 (2025) are koff and Kd values, retold here.

Read-outs that look alike come from different tables or passages of the source.

Usually koff stands for a measure of how fast the partners let go of each other. A lower koff goes with a long-lived complex. A word on the Kd: it is the equilibrium constant for the complex coming apart.

Common to all, as to assay: SPR
Experiment [1] concerns the target T1, CK19 (ligand protein of the Biacore assay) (UniProt P08727 1-400).
T1 chain: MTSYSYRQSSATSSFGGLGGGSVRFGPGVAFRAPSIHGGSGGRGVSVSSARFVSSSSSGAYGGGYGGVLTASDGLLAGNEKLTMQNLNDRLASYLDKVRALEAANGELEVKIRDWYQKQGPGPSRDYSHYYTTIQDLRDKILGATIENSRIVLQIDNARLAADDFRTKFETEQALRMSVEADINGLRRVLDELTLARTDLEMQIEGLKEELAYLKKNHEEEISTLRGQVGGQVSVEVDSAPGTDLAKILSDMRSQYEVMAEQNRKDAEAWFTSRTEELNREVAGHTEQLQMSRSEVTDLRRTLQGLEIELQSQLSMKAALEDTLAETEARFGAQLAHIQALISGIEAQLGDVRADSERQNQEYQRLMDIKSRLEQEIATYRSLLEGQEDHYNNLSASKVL

For experiment [2], the target named is T1, CK19 (ligand protein of the Biacore …).
For experiment [3] the target is unchanged.
The target is the same in experiment [4].

B1: NICD2-His (domain or fragment)
chain: VIMAKRKRKHGSLWLPEGFTLRRDASNHKRREPVGQDAVGLKNLSVQVSEANLIGTGTSEHWVDDEGPQPKKVKAEDEALLSEEDDPIDRRPWTQQHLEAADIRRTPSLALTPPQAEQEVDVLDVNVRGPDGCTPLMLASLRGGSSDLSDEDEDAEDSSANIITDLVYQGASLQAQTDRTGEMALHLAARYSRADAAKRLLDAGADANAQDNMGRCPLHAAVAADAQGVFQILIRNRVTDLDARMNDGTTPLILAARLAVEGMVAELINCQADVNAVDDHGKSALHWAAAVNNVEATLLLLKNGANRDMQDNKEETPLFLAAREGSYEAAKILLDHFANRDITDHMDRLPRDVARDRMHHDIVRLLDEYNVTPSPPGTVLTSALSPVICGPNRSFLSLKHTPMGKKSRRPSAKSTMPTSLPNLAKEAKDAKGSRRKKSLSEKVQLSESSVTLSPVDSLESPHTYVSDTTSSPMITSPGILQASPNPMLATAAPPAPVHAQHALSFSNLHEMQPLAHGASTVLPSVSQLLSHHHIVSPGSGSAGSLSRLHPVPVPADWMNRMEVNETQYNEMFGMVLAPAEGTHPGIAPQSRPPEGKHITTPREPLPPIVTFQLIPKGSIAQPAGAPQPQSTCPPAVAGPLPTMYQIPEMARLPSVAFPTAMMPQQDGQVAQTILPAYHPFPASVGKYPTPPSQHSYASSNAAERTPSHSGHLQGEHPYLTPSPESPDQWSSSSPHSASDWSDVTTSPTPGGAGGGQRGPGTHMSEPPHNNMQVYA
In experiment [1], B1 yielded a koff of 0.0854 s⁻¹. In experiment [2], this molecule registered a Kd of 635 nM.

B2: MANF (analyte of the Biacore assay) (natural protein)
chain: LRPGDCEVCISYLGRFYQDLKDRDVTFSPATIENELIKFCREARGKENRLCYYIGATDDAATKIINEVSKPLAHHIPVEKICEKLKKKDSQICELKYDKQIDLSTVDLKKLRVKELKKILDDWGETCKGCAEKSDYIRKINELMPKYAPKAASARTDL
Molecule B2 registered a Kd in experiment [3] of 214 nM. The koff in experiment [4] is 0.0117 s⁻¹.
